We go through two molecules from US6685944.

Test [1] deals with HLA-A2.1 on TAP-deficient T2 cells (human). In words: T2 cell HLA-A2.1 stabilisation assay, flow cytometry with BB7.2. (In flow cytometry, cells or beads pass a laser one at a time.)
For test [2] the target is unchanged. The settings on record: remark: other sources report otherwise.

Like-named read-outs stand apart in the source and are kept apart here.

B1: C7A2-8V peptide (peptide)
peptide: DLMGYIPVV
modifications: not checked
Regarding B1, the FI0.5 in test [1] came to 15 µM.

B2: wild-type C7A2 peptide (C7A2-WT) (peptide)
peptide: DLMGYIPLV
modifications: not checked
For B2, in test [2], the FI0.5 worked out at 10 µM.
